Measured values taken from patent publication US7022489 (dated 2006).

T1: rat GALR3 (rat)
T1 chain: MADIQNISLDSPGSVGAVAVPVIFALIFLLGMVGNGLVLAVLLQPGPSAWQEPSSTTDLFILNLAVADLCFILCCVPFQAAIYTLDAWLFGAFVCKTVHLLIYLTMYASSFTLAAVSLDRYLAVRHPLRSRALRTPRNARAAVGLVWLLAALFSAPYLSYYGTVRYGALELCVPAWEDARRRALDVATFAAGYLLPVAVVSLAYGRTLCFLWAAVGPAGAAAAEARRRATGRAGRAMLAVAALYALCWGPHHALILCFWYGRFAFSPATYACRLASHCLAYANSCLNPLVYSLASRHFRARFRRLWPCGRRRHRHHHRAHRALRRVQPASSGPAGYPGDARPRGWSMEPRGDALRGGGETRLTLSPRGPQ

T2: human GALR3 (human)
T2 chain: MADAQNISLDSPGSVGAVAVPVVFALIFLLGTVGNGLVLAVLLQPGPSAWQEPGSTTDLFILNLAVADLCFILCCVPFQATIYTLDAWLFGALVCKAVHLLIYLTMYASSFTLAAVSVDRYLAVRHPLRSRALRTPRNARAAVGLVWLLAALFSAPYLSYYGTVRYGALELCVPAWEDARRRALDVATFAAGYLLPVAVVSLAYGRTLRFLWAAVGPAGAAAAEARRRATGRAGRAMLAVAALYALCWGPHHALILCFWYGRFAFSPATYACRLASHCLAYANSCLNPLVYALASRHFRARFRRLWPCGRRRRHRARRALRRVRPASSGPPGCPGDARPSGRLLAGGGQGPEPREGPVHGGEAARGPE


Tests used:
rat GALR3 [1] = target: T1, rat GALR3; assay: competition
rat GALR3 [2] = target: T1, rat GALR3; assay: competition, COS-7
rat GALR3 [3] = target: T1, rat GALR3; assay: competition
human GALR3 [4] = target: T2, human GALR3; assay: competition
rat GALR3 [5] = target: T1, rat GALR3; assay: competition, 293-rGalR3-105
rat GALR3 [6] = target: T1, rat GALR3; assay: other, 125I-galanin saturation, COS-7 membranes
human GALR3 [7] = target: T2, human GALR3; assay: other, 125I-galanin saturation, L-hGalR3-228 membranes

| Ki (rat GALR3 [1]) [µM] | Ki (rat GALR3 [2]) [µM] | Ki (rat GALR3 [3]) [µM] | Ki (human GALR3 [4]) [µM] | Ki (rat GALR3 [5]) [µM] | Kd (rat GALR3 [6]) [µM] | Kd (human GALR3 [7]) [µM] | Binder |
| --- | --- | --- | --- | --- | --- | --- | --- |
| > 1 | > 1 | > 1 | > 1 | > 1 | – | – | D-Trp2-galanin 1-29 (protein, D-Trp at position 2, mature numbering) KRGWTLNSAGYLLGPHAIDNHRSFHDKYGLAGKRELEPEDEARPGGFDRLQSEDKAIRTIMEFLAFLHLKEAGALGRLPGLPSAASSEDAGQS |
| – | – | – | – | – | 0.00034 | 0.00257 | porcine galanin (protein) KRGWTLNSAGYLLGPHAIDNHRSFHDKYGLAGKRELEPEDEARPGGFDRLQSEDKAIRTIMEFLAFLHLKEAGALGRLPGLPSAASSEDAGQS |
